Where two headings read alike, the source gives them in different places.
Tests used:
[1] = target: Drosophila melanogaster full-length secreted semaphorin-2b (Sema2b_(full)) (Drosophila melanogaster); assay: SEC-MALS; Superdex 200 Increase 10/300, 15 mM HEPES pH 7.4, 150 mM NaCl; with SDS-PAGE under reducing and non-reducing conditions; initial concentrations up to 2 mg/ml; monomer to dimer
[2] = target: Drosophila melanogaster PlexB1–4-mVenus (Drosophila melanogaster) (UniProt Q9V4A7); assay: MST; plexin-mVenus kept constant, unlabelled semaphorin titrated (1:1 dilution series); 25 °C; 15 mM HEPES pH 7.4, 150 mM NaCl, 2 mM CaCl2, 0.005% Tween-20; 1 h incubation at room temperature; apparent Kd
Sequence of Drosophila melanogaster PlexB1–4-mVenus (Drosophila melanogaster) (Q9V4A7 35-730): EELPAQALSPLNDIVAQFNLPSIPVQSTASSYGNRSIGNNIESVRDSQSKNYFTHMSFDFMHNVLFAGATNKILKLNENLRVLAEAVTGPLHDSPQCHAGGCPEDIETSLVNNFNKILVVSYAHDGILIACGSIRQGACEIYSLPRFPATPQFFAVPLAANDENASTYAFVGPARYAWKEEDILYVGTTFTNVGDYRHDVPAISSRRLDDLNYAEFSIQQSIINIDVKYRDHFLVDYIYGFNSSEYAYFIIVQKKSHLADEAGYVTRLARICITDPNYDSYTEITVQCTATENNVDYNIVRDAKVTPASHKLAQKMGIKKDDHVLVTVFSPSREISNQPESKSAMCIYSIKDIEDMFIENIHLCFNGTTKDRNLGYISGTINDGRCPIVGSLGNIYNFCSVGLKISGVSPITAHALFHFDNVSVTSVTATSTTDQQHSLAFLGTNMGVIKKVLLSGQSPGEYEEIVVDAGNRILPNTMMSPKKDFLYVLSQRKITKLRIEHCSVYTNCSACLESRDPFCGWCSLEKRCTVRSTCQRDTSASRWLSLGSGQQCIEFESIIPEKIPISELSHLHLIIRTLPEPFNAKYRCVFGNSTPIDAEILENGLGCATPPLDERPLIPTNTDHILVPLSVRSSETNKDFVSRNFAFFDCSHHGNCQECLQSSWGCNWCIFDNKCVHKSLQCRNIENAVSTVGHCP

[3] = target: Sema2b_(full) with the dimerization cysteine mutated to serine (Drosophila melanogaster); assay: SEC-MALS; Superdex 200 Increase 10/300, 15 mM HEPES pH 7.4, 150 mM NaCl; with SDS-PAGE under reducing and non-reducing conditions; initial concentrations up to 2 mg/ml; monomer to dimer
[4] = target: T1, Drosophila melanogaster PlexA1–4-mVenus (Drosophila melanogaster, UniProt Q9V491 28-730); assay: MST; plexin-mVenus kept constant, unlabelled semaphorin titrated (1:1 dilution series); 25 °C; 15 mM HEPES pH 7.4, 150 mM NaCl, 2 mM CaCl2, 0.005% Tween-20; 1 h incubation at room temperature; apparent Kd
T1 construct: Plexin A, Drosophila melanogaster, domains 1-4 of the ectodomain, residues 28Q-730T; source: HEK293T, transient transfection, purified (HisTrap, SEC); not shown: mVenus, C-terminal, kept
T1 sequence (looked up): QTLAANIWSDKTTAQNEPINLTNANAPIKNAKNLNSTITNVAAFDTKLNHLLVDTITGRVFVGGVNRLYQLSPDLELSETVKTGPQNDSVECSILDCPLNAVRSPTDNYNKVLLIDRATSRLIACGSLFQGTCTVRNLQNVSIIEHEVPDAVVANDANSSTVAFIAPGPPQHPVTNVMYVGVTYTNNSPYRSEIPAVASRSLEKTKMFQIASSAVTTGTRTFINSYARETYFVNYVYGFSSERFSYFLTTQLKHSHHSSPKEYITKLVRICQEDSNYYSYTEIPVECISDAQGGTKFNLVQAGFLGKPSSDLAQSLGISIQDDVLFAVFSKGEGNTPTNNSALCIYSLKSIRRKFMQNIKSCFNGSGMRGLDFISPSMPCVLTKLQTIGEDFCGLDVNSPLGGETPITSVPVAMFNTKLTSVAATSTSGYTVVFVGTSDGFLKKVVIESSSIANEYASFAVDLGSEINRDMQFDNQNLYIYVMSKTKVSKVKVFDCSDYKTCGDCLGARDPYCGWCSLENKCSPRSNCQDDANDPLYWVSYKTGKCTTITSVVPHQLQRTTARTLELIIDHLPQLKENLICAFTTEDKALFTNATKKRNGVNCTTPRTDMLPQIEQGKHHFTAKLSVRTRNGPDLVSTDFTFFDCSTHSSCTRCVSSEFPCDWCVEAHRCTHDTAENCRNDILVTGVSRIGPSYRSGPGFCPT

[5] = target: Drosophila melanogaster semaphorin-1a full-length ectodomain (Sema1a_(ecto)) (Drosophila melanogaster); assay: SEC-MALS; Superdex 200 Increase 10/300, 15 mM HEPES pH 7.4, 150 mM NaCl; with SDS-PAGE under reducing and non-reducing conditions; initial concentrations up to 2 mg/ml; monomer to dimer
[6] = target: the molecule itself; assay: as above
[7] = target: Drosophila melanogaster full-length secreted semaphorin-2b (Sema2b_(full)) (Drosophila melanogaster); assay: SEC-MALS; co-expressed heterodimer purified by HisTrap, StrepTactin and SEC; Superdex 200 Increase 10/300, 15 mM HEPES pH 7.4, 150 mM NaCl; with SDS-PAGE under reducing and non-reducing conditions

With “Drosophila melanogaster full-length secreted semaphorin-2b (Sema2b_(full)) (ligand)” the stoichiometry N [1] was 2 and the Kd [2] was 3 nM.

In the case of “Sema2b_(full) with the dimerization cysteine mutated to serine (ligand)”, the stoichiometry N [3] is reported as 2.

“Fc-tagged dimerized Sema1a_(ecto) (Sema1a_(ecto)-Fc) (from UniProt Q24322 21-602) (Fc fusion)” was tested, and the Kd [4] was 141 nM.

With “Drosophila melanogaster semaphorin-1a full-length ectodomain (Sema1a_(ecto)) (domain or fragment)” the stoichiometry N [5] was 2.

“Sema2a/2b heterodimer (Sema2a_(full)-TwinStrep with Sema2b_(full)-His6, disulfide-linked) (from UniProt Q24323 26-724) (complex)” was tested, and the Kd [2] was 13 nM.

B1: Drosophila melanogaster full-length secreted semaphorin-2a (Sema2a_(full)) (ligand, UniProt Q24323 26-724, looked up)
chain: DYENTWNFYYERPCCTGNDQGNNNYGKHGADHVREFNCGKLYYRTFHMNEDRDTLYVGAMDRVFRVNLQNISSSNCNRDVINLEPTRDDVVSCVSKGKSQIFDCKNHVRVIQSMDQGDRLYVCGTNAHNPKDYVIYANLTHLPRSEYVIGVGLGIAKCPYDPLDNSTAIYVENGNPGGLPGLYSGTNAEFTKADTVIFRTDLYNTSAKRLEYKFKRTLKYDSKWLDKPNFVGSFDIGEYVYFFFRETAVEYINCGKAVYSRIARVCKKDVGGKNLLAHNWATYLKARLNCSISGEFPFYFNEIQSVYQLPSDKSRFFATFTTSTNGLIGSAVCSFHINEIQAAFNGKFKEQSSSNSAWLPVLNSRVPEPRPGTCVNDTSNLPDTVLNFIRSHPLMDKAVNHEHNNPVYYKRDLVFTKLVVDKIRIDILNQEYIVYYVGTNLGRIYKIVQYYRNGESLSKLLDIFEVAPNEAIQVMEISQTRKSLYIGTDHRIKQIDLAMCNRRYDNCFRCVRDPYCGWDKEANTCRPYELDLLQDVANETSDICDSSVLKKKIVVTYGQSVHLGCFVKIPEVLKNEQVTWYHHSKDKGRYEIRYSPTKYIETTERGLVVVSVNEADGGRYDCHLGGSLLCSYNITVDAHRCTPPNKSNDYQKIYSDWCHEFEKYKTAMKSWEKKQAQCSTRQNFSSNQHPNEIFRKPNV
notes: Semaphorin-2a, Drosophila melanogaster, residues 26D-724V; Disulfide-linked dimer in solution; source: HEK293T (37 °C), transient transfection, purified (HisTrap, SEC)
With B1 the “stoichiometry N” value [6] was 2 and the stoichiometry N [7] was 1.

B2: Sema2a_(full) with the dimerization cysteine (Cys279) mutated to serine (ligand, Drosophila melanogaster, UniProt Q24323 26-724, looked up)
chain: DYENTWNFYYERPCCTGNDQGNNNYGKHGADHVREFNCGKLYYRTFHMNEDRDTLYVGAMDRVFRVNLQNISSSNCNRDVINLEPTRDDVVSCVSKGKSQIFDCKNHVRVIQSMDQGDRLYVCGTNAHNPKDYVIYANLTHLPRSEYVIGVGLGIAKCPYDPLDNSTAIYVENGNPGGLPGLYSGTNAEFTKADTVIFRTDLYNTSAKRLEYKFKRTLKYDSKWLDKPNFVGSFDIGEYVYFFFRETAVEYINSGKAVYSRIARVCKKDVGGKNLLAHNWATYLKARLNCSISGEFPFYFNEIQSVYQLPSDKSRFFATFTTSTNGLIGSAVCSFHINEIQAAFNGKFKEQSSSNSAWLPVLNSRVPEPRPGTCVNDTSNLPDTVLNFIRSHPLMDKAVNHEHNNPVYYKRDLVFTKLVVDKIRIDILNQEYIVYYVGTNLGRIYKIVQYYRNGESLSKLLDIFEVAPNEAIQVMEISQTRKSLYIGTDHRIKQIDLAMCNRRYDNCFRCVRDPYCGWDKEANTCRPYELDLLQDVANETSDICDSSVLKKKIVVTYGQSVHLGCFVKIPEVLKNEQVTWYHHSKDKGRYEIRYSPTKYIETTERGLVVVSVNEADGGRYDCHLGGSLLCSYNITVDAHRCTPPNKSNDYQKIYSDWCHEFEKYKTAMKSWEKKQAQCSTRQNFSSNQHPNEIFRKPNV
notes: Semaphorin-2a, Drosophila melanogaster, residues 26D-724V, Cys279 to serine; also called Sema2a_(full) Cys to Ser mutant; source: HEK293T, transient transfection, purified (HisTrap, SEC)
In the case of B2, the “stoichiometry N” value [6] is reported as 2.

B3: Sema1b_(ecto) with phenylalanine 254 mutated to cysteine (domain or fragment, Drosophila melanogaster, UniProt Q7KK54 37-659, looked up)
chain: DVKPDLQTKQDKVLAHFIGNSTDYFKILDHNDEFVLVGAKDVIYNVSLNGLKEIARLEWHSTDADRELCALKGKHEWDCHNYLRVYALRPNGEVLLCGTNSYKPRCRHYTPVEVSSEEAGSAGHAHAMRYEVSRDVEAQGLCPYSPAHNSTYAFADGHLYSATVADFSGGDPLIYRENLRTEQYDLKQLNQPDFVGAIERNGYVLFFFRELSMEVMNCGKAVYSRVARVCKNDRGGPYSHGKSWTSFLKARLNCSVPGEFPFYFDEIQAISPIVESGSKSLIYAVFTTSVNAIPGSAVCAFNVDDILAAFDGEFKSQKDSQSHWLPVEREQVPKPRPGQCVEDSRTLTSIAVNFIKNHPLMEEAVPAVHGRPLLTKVNLHHRLTAIAVHPQVKSLSGAYYDVIYSGTDDGKVTKFINILSTHPNSTVDRLKTVVISEMQVLPLGTPIRELVISTSKNSLVVVSDGSLVSVPLHHCSHIVDCLGCLSLQDPICAWDLQTHECKNLATSQHKFGTKTYLQSLNSTKKAAALLCPHIPRDAPGAETVSFVTMAPPPTEEQKLLYSNVGSSQGNQPSLEQQPTGGDDFGLNKITLTSMDPDDIMPNLNDPQKSTASVDEIKYASTPS
notes: Semaphorin-1b, Drosophila melanogaster, ectodomain, residues 37D-659S, F254C; also called Sema1b_(ecto) F254C; source: HEK293T, transient transfection, purified (HisTrap, SEC)
With B3 the “stoichiometry N” value [6] was 2.

B4: Drosophila melanogaster semaphorin-1b full-length ectodomain (Sema1b_(ecto)) (domain or fragment, UniProt Q7KK54 37-659, looked up)
chain: DVKPDLQTKQDKVLAHFIGNSTDYFKILDHNDEFVLVGAKDVIYNVSLNGLKEIARLEWHSTDADRELCALKGKHEWDCHNYLRVYALRPNGEVLLCGTNSYKPRCRHYTPVEVSSEEAGSAGHAHAMRYEVSRDVEAQGLCPYSPAHNSTYAFADGHLYSATVADFSGGDPLIYRENLRTEQYDLKQLNQPDFVGAIERNGYVLFFFRELSMEVMNFGKAVYSRVARVCKNDRGGPYSHGKSWTSFLKARLNCSVPGEFPFYFDEIQAISPIVESGSKSLIYAVFTTSVNAIPGSAVCAFNVDDILAAFDGEFKSQKDSQSHWLPVEREQVPKPRPGQCVEDSRTLTSIAVNFIKNHPLMEEAVPAVHGRPLLTKVNLHHRLTAIAVHPQVKSLSGAYYDVIYSGTDDGKVTKFINILSTHPNSTVDRLKTVVISEMQVLPLGTPIRELVISTSKNSLVVVSDGSLVSVPLHHCSHIVDCLGCLSLQDPICAWDLQTHECKNLATSQHKFGTKTYLQSLNSTKKAAALLCPHIPRDAPGAETVSFVTMAPPPTEEQKLLYSNVGSSQGNQPSLEQQPTGGDDFGLNKITLTSMDPDDIMPNLNDPQKSTASVDEIKYASTPS
notes: Semaphorin-1b, Drosophila melanogaster, ectodomain, residues 37D-659S; Monomer in solution; source: HEK293T (30 °C), transient transfection, purified (HisTrap, SEC)
With B4 the Kd ([4]; both partners purified) was 586 ± 134 nM.
